The values that follow are results of earlier work, collected in paper PMC6426597.

The target in the data set is CD40 (Homo sapiens) (UniProt P25942).
Sequence of UniProt P25942 (P25942 21-193): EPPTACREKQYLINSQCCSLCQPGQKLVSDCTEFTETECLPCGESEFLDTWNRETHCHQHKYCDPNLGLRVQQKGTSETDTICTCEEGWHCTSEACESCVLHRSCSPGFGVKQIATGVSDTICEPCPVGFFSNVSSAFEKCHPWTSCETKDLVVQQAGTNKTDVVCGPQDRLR

As for TSST-1 (from UniProt P06886), the Kd was 2700 nM.
